Assay results reported in publication PMC3764422, “A model of yeast glycolysis based on a consistent kinetic characterisation of all its enzymes” (Febs Letters, 2013).

Biological target: T1, phosphofructokinase beta subunit Pfk2p (S. cerevisiae, UniProt P16862 1-959)
T1 sequence (looked up): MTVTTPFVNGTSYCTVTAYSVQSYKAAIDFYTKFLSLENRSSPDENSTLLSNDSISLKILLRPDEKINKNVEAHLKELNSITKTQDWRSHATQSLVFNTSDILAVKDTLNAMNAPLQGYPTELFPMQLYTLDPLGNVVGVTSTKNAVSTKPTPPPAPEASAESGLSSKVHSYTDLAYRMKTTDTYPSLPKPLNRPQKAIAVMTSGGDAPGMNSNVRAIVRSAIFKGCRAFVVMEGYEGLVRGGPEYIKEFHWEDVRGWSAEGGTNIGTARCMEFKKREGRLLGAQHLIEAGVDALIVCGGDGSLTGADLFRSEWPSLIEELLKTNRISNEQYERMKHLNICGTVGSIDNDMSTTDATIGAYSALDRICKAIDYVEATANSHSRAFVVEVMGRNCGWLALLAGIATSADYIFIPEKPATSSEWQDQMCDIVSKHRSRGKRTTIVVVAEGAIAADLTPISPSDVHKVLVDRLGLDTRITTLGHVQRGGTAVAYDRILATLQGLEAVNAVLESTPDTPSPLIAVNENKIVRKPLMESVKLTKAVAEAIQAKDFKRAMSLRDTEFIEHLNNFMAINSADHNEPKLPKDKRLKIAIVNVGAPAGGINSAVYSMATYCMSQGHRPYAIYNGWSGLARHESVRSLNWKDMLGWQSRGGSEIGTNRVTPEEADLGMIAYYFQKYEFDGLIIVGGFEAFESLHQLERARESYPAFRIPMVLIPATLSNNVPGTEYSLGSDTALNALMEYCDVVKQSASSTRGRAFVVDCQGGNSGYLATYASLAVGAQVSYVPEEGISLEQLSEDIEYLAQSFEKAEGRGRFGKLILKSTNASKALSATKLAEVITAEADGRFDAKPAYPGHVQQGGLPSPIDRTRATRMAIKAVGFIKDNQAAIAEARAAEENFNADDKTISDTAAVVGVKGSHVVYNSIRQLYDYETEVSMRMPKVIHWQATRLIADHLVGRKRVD
Assay: cell-based or functional assay

kcat of phosphofructokinase, Pfk1p:Pfk2p co-expressed and co-purified (spectrophotometric coupled assay, 30 °C): 210 s⁻¹
B1: phosphofructokinase alpha subunit Pfk1p (enzyme, S. cerevisiae, UniProt P16861 1-987, looked up)
chain: MQSQDSCYGVAFRSIITNDEALFKKTIHFYHTLGFATVKDFNKFKHGENSLLSSGTSQDSLREVWLESFKLSEVDASGFRIPQQEATNKAQSQGALLKIRLVMSAPIDETFDTNETATITYFSTDLNKIVEKFPKQAEKLSDTLVFLKDPMGNNITFSGLANATDSAPTSKDAFLEATSEDEIISRASSDASDLLRQTLGSSQKKKKIAVMTSGGDSPGMNAAVRAVVRTGIHFGCDVFAVYEGYEGLLRGGKYLKKMAWEDVRGWLSEGGTLIGTARSMEFRKREGRRQAAGNLISQGIDALVVCGGDGSLTGADLFRHEWPSLVDELVAEGRFTKEEVAPYKNLSIVGLVGSIDNDMSGTDSTIGAYSALERICEMVDYIDATAKSHSRAFVVEVMGRHCGWLALMAGIATGADYIFIPERAVPHGKWQDELKEVCQRHRSKGRRNNTIIVAEGALDDQLNPVTANDVKDALIELGLDTKVTILGHVQRGGTAVAHDRWLATLQGVDAVKAVLEFTPETPSPLIGILENKIIRMPLVESVKLTKSVATAIENKDFDKAISLRDTEFIELYENFLSTTVKDDGSELLPVSDRLNIGIVHVGAPSAALNAATRAATLYCLSHGHKPYAIMNGFSGLIQTGEVKELSWIDVENWHNLGGSEIGTNRSVASEDLGTIAYYFQKNKLDGLIILGGFEGFRSLKQLRDGRTQHPIFNIPMCLIPATVSNNVPGTEYSLGVDTCLNALVNYTDDIKQSASATRRRVFVCEVQGGHSGYIASFTGLITGAVSVYTPEKKIDLASIREDITLLKENFRHDKGENRNGKLLVRNEQASSVYSTQLLADIISEASKGKFGVRTAIPGHVQQGGVPSSKDRVTASRFAVKCIKFIEQWNKKNEASPNTDAKVLRFKFDTHGEKVPTVEHEDDSAAVICVNGSHVSFKPIANLWENETNVELRKGFEVHWAEYNKIGDILSGRLKLRAEVAALAAENK
